Assay results from IntAct's records for PubMed 19135897.

B1: Mitochondrial Rho GTPase (Drosophila melanogaster (Fruit fly)), Q8IMX7 (parent)
chain: MGQYTASQRKNVRILLVGDAGVGKTSLILSLVSEEYPEEVPPRAEEITIPANVTPEQVPTSIVDFSAVEQSEDALAAEINKAHVVCIVYAVDDDDTLDRITSHWLPLVRAKCNPSLDGEGDAEAEAEGDTQREPIRKPIVLVGNKIDLIEYSTMDSVLAIMEDYPEIESCVECSAKSLHNISEMFYYAQKAVLHPTSPLYMMEEQELTSACKKSLVRIFKICDIDGDNLLNDYELNLFQRRCFNTPLQPQILDEVKAVIQKNVPDGIYNDAVTLKGFLFLHCLFIQRGRNETTWAVLRRFGYNDQLEMCQEYLRPPLKIPPGSSTELSHRGQQFLIAVFERYDRDGDGALSPEEHKMLFSTCPAAPWSYSTDIRKSCPINETTGWVTLHGWLCRWTLMTLIDVVKTMEYLAYLGFNVHENDSQLAAIHVTRERRIDLAKRQSSRSVYKCHVIGPKGSGKTGMCRGFLVEDMHKLIGKEFKTNVVNCINSVQVYGQEKHLILRDIDVRHALDPLQPQEVNCDVACLVYDSSNPRSFEYVARIYIKYYAESKIPVMIVGTKCDMDERRQDYLMQPSEFCDKYKLLPPHLFSLKTNKKELYTKLATMAAFPHLRQFGLMTEDPKLWLKAGLGVAAATMLGFIVLKTISAAGAHTR
B2: Mitochondrial Rho GTPase 1 (Homo sapiens), Q8IXI2 (parent)
chain: MKKDVRILLVGEPRVGKTSLIMSLVSEEFPEEVPPRAEEITIPADVTPERVPTHIVDYSEAEQSDEQLHQEISQANVICIVYAVNNKHSIDKVTSRWIPLINERTDKDSRLPLILVGNKSDLVEYSSMETILPIMNQYTEIETCVECSAKNLKNISELFYYAQKAVLHPTGPLYCPEEKEMKPACIKALTRIFKISDQDNDGTLNDAELNFFQRICFNTPLAPQALEDVKNVVRKHISDGVADSGLTLKGFLFLHTLFIQRGRHETTWTVLRRFGYDDDLDLTPEYLFPLLKIPPDCTTELNHHAYLFLQSTFDKHDLDRDCALSPDELKDLFKVFPYIPWGPDVNNTVCTNERGWITYQGFLSQWTLTTYLDVQRCLEYLGYLGYSILTEQESQASAVTVTRDKKIDLQKKQTQRNVFRCNVIGVKNCGKSGVLQALLGRNLMRQKKIREDHKSYYAINTVYVYGQEKYLLLHDISESEFLTEAEIICDVVCLVYDVSNPKSFEYCARIFKQHFMDSRIPCLIVAAKSDLHEVKQEYSISPTDFCRKHKMPPPQAFTCNTADAPSKDIFVKLTTMAMYPHVTQADLKSSTFWLRASFGATVFAVLGFAMYKALLKQR

Key:
kinh_rat Kif5b, Q2PQA9 = variants of: B1; conditions: with kinh_rat Kif5b
kinh_rat Kif5b, Q2PQA9, sequence (Q2PQA9 whole entry): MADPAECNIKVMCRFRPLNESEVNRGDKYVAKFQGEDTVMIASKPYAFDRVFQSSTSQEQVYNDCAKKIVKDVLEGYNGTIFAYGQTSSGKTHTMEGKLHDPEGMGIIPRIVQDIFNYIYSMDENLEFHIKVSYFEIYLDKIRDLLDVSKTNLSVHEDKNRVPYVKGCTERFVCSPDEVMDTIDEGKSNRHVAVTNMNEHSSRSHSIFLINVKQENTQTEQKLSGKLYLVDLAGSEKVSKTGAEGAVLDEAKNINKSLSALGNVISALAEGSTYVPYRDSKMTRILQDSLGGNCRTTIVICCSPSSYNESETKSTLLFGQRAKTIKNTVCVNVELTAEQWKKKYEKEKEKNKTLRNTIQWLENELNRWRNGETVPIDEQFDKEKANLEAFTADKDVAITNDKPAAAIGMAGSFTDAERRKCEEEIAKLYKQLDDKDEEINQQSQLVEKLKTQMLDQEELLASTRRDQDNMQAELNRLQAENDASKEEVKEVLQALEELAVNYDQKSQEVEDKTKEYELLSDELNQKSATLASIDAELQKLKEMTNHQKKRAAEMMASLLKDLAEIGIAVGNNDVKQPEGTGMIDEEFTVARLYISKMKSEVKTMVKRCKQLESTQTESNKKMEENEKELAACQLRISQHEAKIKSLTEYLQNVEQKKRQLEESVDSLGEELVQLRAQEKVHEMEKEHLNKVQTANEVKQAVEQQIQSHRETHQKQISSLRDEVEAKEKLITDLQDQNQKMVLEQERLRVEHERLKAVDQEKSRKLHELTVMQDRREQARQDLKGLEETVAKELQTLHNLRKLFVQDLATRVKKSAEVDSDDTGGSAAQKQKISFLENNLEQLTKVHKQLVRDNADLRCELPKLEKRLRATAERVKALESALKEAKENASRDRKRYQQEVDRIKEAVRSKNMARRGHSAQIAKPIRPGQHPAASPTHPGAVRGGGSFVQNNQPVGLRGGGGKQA

kif5c_rat Kif5c, P56536 [1] = variants of: B2; conditions: with kif5c_rat Kif5c
kif5c_rat Kif5c, P56536, sequence (P56536 whole entry): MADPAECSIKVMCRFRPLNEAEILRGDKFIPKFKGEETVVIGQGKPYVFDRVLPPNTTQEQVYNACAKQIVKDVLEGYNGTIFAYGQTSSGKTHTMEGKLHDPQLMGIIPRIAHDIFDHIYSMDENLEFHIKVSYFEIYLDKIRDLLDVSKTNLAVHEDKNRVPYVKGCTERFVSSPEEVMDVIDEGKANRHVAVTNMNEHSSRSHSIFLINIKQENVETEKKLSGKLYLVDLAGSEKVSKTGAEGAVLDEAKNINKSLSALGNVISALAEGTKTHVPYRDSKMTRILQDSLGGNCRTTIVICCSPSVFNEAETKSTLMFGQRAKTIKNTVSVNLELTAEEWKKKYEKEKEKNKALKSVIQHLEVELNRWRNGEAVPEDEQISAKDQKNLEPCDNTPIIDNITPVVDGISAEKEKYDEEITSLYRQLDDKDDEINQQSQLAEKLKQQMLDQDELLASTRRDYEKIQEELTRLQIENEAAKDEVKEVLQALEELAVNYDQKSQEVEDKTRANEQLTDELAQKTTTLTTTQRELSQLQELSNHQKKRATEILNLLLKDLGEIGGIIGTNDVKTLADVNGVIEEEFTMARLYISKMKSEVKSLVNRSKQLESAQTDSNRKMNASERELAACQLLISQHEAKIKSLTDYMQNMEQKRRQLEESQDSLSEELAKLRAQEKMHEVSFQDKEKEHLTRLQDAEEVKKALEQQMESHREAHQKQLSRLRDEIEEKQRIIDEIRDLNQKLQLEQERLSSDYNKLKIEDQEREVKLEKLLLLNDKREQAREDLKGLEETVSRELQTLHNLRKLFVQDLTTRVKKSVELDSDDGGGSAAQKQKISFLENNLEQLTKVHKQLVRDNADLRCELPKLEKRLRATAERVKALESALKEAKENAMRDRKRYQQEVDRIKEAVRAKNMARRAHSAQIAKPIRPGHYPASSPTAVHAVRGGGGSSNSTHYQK

kif5c_rat Kif5c, P56536 [2] = variants of: B2; conditions: with kif5c_rat Kif5c; remark: listed apart in the source
[3] = variants of: B2; conditions: with kif5c_human KIF5C

Variant	effect of a mutation on the interaction (kinh_rat Kif5b, Q2PQA9)	effect of a mutation on the interaction (kif5c_rat Kif5c, P56536 [1])	effect of a mutation on the interaction (kif5c_rat Kif5c, P56536 [2])	effect of a mutation on the interaction [3]
E234K;D345K	decreasing interaction			
E208K;E328K		decreasing interaction	decreasing interaction	decreasing interaction strength
